Assay results as given in publication PMC3084833.

Key:
[1] = target: ΔCT-PxxP bestrophin-1 (human bestrophin-1 lacking the C-terminal proline-rich region between 462 and 575) (human) (UniProt O76090); test: co-IP; HEK-293 cells co-transfected with wild-type or ΔCTPxxP bestrophin-1 and β3- or His-tagged β4-subunits; IP with anti-bestrophin-1 antibody, blot anti-β3, or IP with anti-His antibody, blot anti-bestrophin-1; relative co-precipitation efficiency by densitometry of lysate, precipitate and non-bound fraction
[2] = target: calcium channel, voltage-dependent, β4-subunit, His6-tagged (rat, β4-pCDNA3) (Rattus norvegicus) (UniProt D4A055); test: as above

co-precipitation efficiency [1] [%]	co-precipitation efficiency [2] [%]	Substance
4	–	calcium channel, voltage-dependent, β3-subunit (rat, untagged, β3-pCMV) (from UniProt P54287 1-484) (natural protein)
–	4	ΔCT-PxxP bestrophin-1 (human bestrophin-1 lacking the C-terminal proline-rich region between 462 and 575) (from UniProt O76090-1 1-585) (natural protein)
